From patent US20250388680A1 (KITE PHARMA, published 2025)
Where a chain is given by its changes, count along the chain named.

T1: huIgG1 huCLL1 (human, UniProt Q5QGZ9 65-265, limits assumed)
T1 construct: not shown: human IgG1 part
T1 sequence: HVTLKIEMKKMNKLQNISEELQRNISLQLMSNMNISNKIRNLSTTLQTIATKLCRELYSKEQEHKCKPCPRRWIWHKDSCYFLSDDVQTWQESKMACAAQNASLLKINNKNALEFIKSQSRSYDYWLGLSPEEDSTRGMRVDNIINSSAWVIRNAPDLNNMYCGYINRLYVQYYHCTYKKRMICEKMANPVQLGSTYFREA

T2: muIgG2a huCLL1 (human, UniProt Q5QGZ9 65-265, limits assumed)
T2 construct: It may be the same construct as muIgG2a monoFc huCLL1 (+) of the ELISA; also called huCLL1.mIgG2a; not shown: mouse IgG2a part
T2 sequence: T1 sequence

T3: huCLEC12B (Acro Biosystems) (human, UniProt Q2HXU8 65-276, limits assumed)
T3 construct: Bought protein
T3 sequence (looked up): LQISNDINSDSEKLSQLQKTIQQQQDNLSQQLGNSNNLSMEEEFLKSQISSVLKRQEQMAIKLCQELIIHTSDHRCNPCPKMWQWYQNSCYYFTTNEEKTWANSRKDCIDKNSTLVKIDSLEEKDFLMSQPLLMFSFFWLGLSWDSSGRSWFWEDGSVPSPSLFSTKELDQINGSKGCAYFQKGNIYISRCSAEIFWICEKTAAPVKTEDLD

B1: D2AD89041-10444 (antibody, V domains shown)
VH: EVQLLESGGGLVQPGGSLRLSCAASGFTFNNYVMAWVRQVPGKGLEWVSGISGSGLITSYAASVKDRFTISRDNSNNTVYLQMKSLRAEDTAVYFCAKEPHVLLDDYMDVWGKGTTVTVSS
VL: EIVLTQSPATLSLSPGERATLSCGASQSVTSSYLAWYQQKPGLAPRLLIYDASNRATGIPDRFSGSGSGTDFTLTISRLEPEDFAVYYCQQYGRSLTFGGGTKVEIK
notes: also called mAb_049
B2: D2D88607-14083 (antibody, V domains shown)
VH: EVQLLESGGDLVQPGGSLRLSCAASGFTFSSYAMNWVRQAPGKGLEWVSAISGSGVFTYYADSVKGRFTISRDNSENTLYLQMNSLRAEDTAVYYCAKEMQQLIQGDLFDIWGQGTMVTVSS
VL: B1 VL with T30S, S31N, S32N, N54S, R94S, L96H, G100Q, V104L
notes: also called mAb_017
B3: D2AD88607-5141 (antibody, V domains shown)
VH: QVQLVESGGGVVQPGRSLRLSCAASGFTFSSYGMHWVRQAPGKGLEWVAIISYDGSDKYYADSVKGRFTISRDNSKNTLYLQMNSLRAEDTAVYYCARNYNYYMDVWGKGTTVTVSS
VL: EIVMTQSPATLSLSPGERATLSCRASQSVRSSYLSWYQQKPGQAPRLLIYGTSTRATGIPARFSGSGSGTDFTLTISSLQPEDFAVYYCQQDYNLPLTFGGGTKVEIK
notes: also called mAb_038
B4: D2D88607-9226 (antibody, V domains shown)
VH: QVQLQQWGAGLLKPSETLSLTCAVYGGSFSGYYWSWIRQPPGKGLEWIGEFNHSGGPNYNPSLKSRVTISTDTSNNQFSLKLSSVTAADTAVYYCARGTTGNYYYYMDVWGKGTTVTVSS
VL: AIQMTQSPSSLSASVGDRVTITCRASQGIRNDLGWYQQKPGKAPKLLIYAASSLQSGVPSRFSGSGSGTDFTLTISSLQPEDFATYYCLQDYIYPPTFGPGTKLEIK
notes: also called mAb_023
B5: D2D88607-15321 (antibody, V domains shown)
VH: EVQLVESGGGLVQPGGSLRLSCAASGFTFSFNDMNWVRQAPGKGLEWVSTISGSGGSTYYADSVKGRFTISRDNSKNTLYLQMNSLRAEDTAVYYCAVTGLYYYYYMDVWGKGTTVTVSS
VL: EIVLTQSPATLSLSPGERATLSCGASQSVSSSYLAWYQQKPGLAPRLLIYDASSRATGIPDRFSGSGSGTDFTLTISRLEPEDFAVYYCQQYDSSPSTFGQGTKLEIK
notes: also called mAb_018
B6: D2AD88607-7048 (antibody, V domains shown)
VH: EVQLVESGGGLVQPGGSLRLSCAASGFTFSSYDMHWVRQATGKGLEWVSAIGTAGDKYYLASVKGRFTISRENAKNSLYLQMNSLRAGDTAVYYCVRDSLTGPTVTPYMDVWGKGTTVTVSS
VL: EIVLTQSPDFQSVTPKEKVTITCRASQSIGSGLHWYQQKPDQSPKLLIIYASQSISGVPSRFSGSGSGTDFTLTINSLEAEDAAAYYCHQSSSLPYTFGQGTKLEIK
notes: also called mAb_042

molecular target: T1, huIgG1 huCLL1; experiment: Octet BLI, mAb captured on FAB2G biosensor, antigen in solution; antigen huCLL1 fused to huIgG1 Fc
Experimental: (§1) Octet Off-Rate Ranking Assay: Alternate binding assay was conducted with the recombinant antibodies confirming specific binding to CLL1 without binding to CLEC12B. Briefly, purified mAbs were individually captured on FAB2G anti-human Fab biosensors. The mAb-captured biosensors were dipped in wells containing antigen and the binding response was measured. Biosensors were later dipped in buffer wells to observe the dissociation of bound antigen from captured mAb and were regenerated and similar binding kinetic assays were performed for subsequent antigens. The binding kinetics of fifteen mAbs were illustrated in Table 2.

Kd [nM]	Binder
1120	B1

molecular target: T2, muIgG2a huCLL1; experiment: Octet BLI, mAb captured on FAB2G biosensor, antigen in solution; antigen huCLL1 fused to muIgG2a Fc
Experimental: as §1

Kd [nM]	Binder
3.46	B1

molecular target: T3, huCLEC12B (Acro Biosystems); experiment: Octet BLI, mAb captured on FAB2G anti-human Fab biosensors
Experimental: as §1

binding result	Binder
no binding	B1
no binding	B2
no binding	B3
no binding	B4
no binding	B5
no binding	B6

molecular target: T2, muIgG2a huCLL1; experiment: Octet BLI, mAb captured on FAB2G biosensor, antigen in solution
Experimental: as §1

t½ [min]	Kd [nM]	Binder
5.4		B1
116	0.374	B2
54.4	0.766	B3
64.1	0.347	B4
83.2	4.29	B5
7.7	2.98	B6

molecular target: T1, huIgG1 huCLL1; experiment: as above
Experimental: as §1

t½ [min]	Kd [nM]	Binder
0		B1
18.6	3.19	B2
2.3	19.9	B3
16.5	2.28	B4
9.1	29.4	B5
0.3	81.1	B6

molecular target: T4, muIgG2a monoFc huCLL1 (+) (human); experiment: ELISA, plate coated with antigen 1 ug/mL; antibody 10.00 ug/mL in well
T4 construct: ELISA coating antigen
Experimental: ELISA Validation: Antibodies identified by the Beacon screen were made recombinantly and validated for binding to CLL1. High-binding ELISA plate was coated with muIgG2a monoFc huCLL1 (+) (1 μg/mL) overnight at 4° C. After removal of the antigen, the wells were blocked with 2% BSA in 1×PBS for 1 hour. The BSA was then removed and the primary antibody was added to the wells in 1×PBS solution, incubated at RT for 1 hour. The wells were washed four times with 1×PBS. HRP conjugated secondary antibody was added in blocking solution, and was incubated at RT for 45 minutes. The wells were washed five times with 1×PBS. TMB substrate was added, followed by stop solution. The plates were read at 450 nm.

OD 450 nm [OD]	Binder
0.205	B1
2	B3
1.75	B4
1.38	B5
1.57	B6
